Data: the supplement of paper PMC7877785
± gives the uncertainty stated by the source.

Assay: self-splicing fitness, log relative to wild type (ln ratio); higher = more splicing; Tetrahymena group I intron in knt gene, E. coli kanamycin selection, DiMSum; sequences stand for … in CUCUCU…GGAGGGAAAAGUUAUCAGGCAUGCACCUGGUAGCUAGUCUUUAAACCAAUAGAUUGCAUCGGUUUAAAAGGCAAGACCGUCAAAUUGCGGGAAAGGGGUCAACAGCCGUUCAGUACCAAGUCUCAGGGGAAACUUUGAGAUGGCCUUGCAAAGGGUAUGGUAAUAAGCUGACGGACAUGGUCCUAACCACGCAGCCAAGUCCUAAGUCAACAGAUCUUCUGUUGAUAUGGAUGCAGUUCACAGACUAAAUGUCGGUCGGGGAAGAUGUAUUCUUCUCAUAAGAUAUAGUCGGACCUCUCCUUAAUGGGAGCUAGCGGAUGAAGUGAUGCAACACUGGAGCCGCUGGGAACUAAUUUGUAUGCGAAAGUAUAUUGAUUAGUUUUGGAGUACUCGUGGUCG
Method in brief: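 Colonies from six replicate transformations of E. coli BL21(DE3) were pooled and amplicon-sequenced on an Illumina HiSeq 2500. The library placed an intron with all eight P1ex-region nucleotides randomised inside the knt kanamycin-resistance gene on pET-22b(+), and cells grew overnight at 37°C or 30°C on LB agar with or without 25 μg/mL kanamycin (plus 100 μg/mL carbenicillin, 50 μM IPTG, 0.2% rhamnose). Fitness is the DiMSum error-weighted combination of wild-type-normalised replicate fold changes, kanamycin versus none.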

Sequence | self-splicing fitness (ln) (30 °C) | self-splicing fitness (ln) (37 °C)
AAAUAGCAAUAUUACGUGAC | -1.53 ± 0.2 | 
AAAUAGCAAUAUUACGUGUA | -2.49 ± 0.091 | -1.44 ± 0.09
AAAUAGCAAUAUUACGUGUU | -1.72 ± 0.083 | -1.75 ± 0.11
AACAAGCAAUAUUACGAAGA | -2.78 ± 0.12 | -2.12 ± 0.14
AACAAGCAAUAUUACGACAU | -0.261 ± 0.01 | 0.0604 ± 0.032
AACAAGCAAUAUUACGAGCC | -3.25 ± 0.47 | -2.09 ± 0.36
AACAAGCAAUAUUACGAGUU | -3.35 ± 0.099 | -1.5 ± 0.091
AACAAGCAAUAUUACGAUAC | -3.73 ± 0.19 | -1.71 ± 0.12
AACAAGCAAUAUUACGAUCG | -1.4 ± 0.076 | -0.996 ± 0.097
AACAAGCAAUAUUACGCCAU | -2.66 ± 0.11 | -2.08 ± 0.13
AACAAGCAAUAUUACGCCGA | -1.45 ± 0.12 | -1.27 ± 0.12
AACAAGCAAUAUUACGCCGG | -0.692 ± 0.075 | -0.963 ± 0.12
AACAAGCAAUAUUACGCGUG | -1.35 ± 0.04 | -0.814 ± 0.056
AACAAGCAAUAUUACGGGUC | -1.68 ± 0.14 | -1.65 ± 0.17
AACAAGCAAUAUUACGGUGG | -1.84 ± 0.06 | -0.813 ± 0.073
AACAAGCAAUAUUACGUCAG | -3.64 ± 0.16 | -2.39 ± 0.14
AACAAGCAAUAUUACGUCCA | -1.12 ± 0.068 | -0.468 ± 0.076
AACAAGCAAUAUUACGUCUA | -0.68 ± 0.053 | 0.247 ± 0.063
AACAAGCAAUAUUACGUGAG | -1.74 ± 0.05 | -1.01 ± 0.067
AACCAGCAAUAUUACGACAG | -2.65 ± 0.083 | -0.775 ± 0.099
AACCAGCAAUAUUACGACUU | 0.018 ± 0.059 | 0.437 ± 0.077
AACCAGCAAUAUUACGAGAG | -3.44 ± 0.15 | -2.06 ± 0.12
AACCAGCAAUAUUACGAGUC | -1.82 ± 0.1 | -0.825 ± 0.11
AACCAGCAAUAUUACGAUAA | -1.35 ± 0.058 | -0.457 ± 0.069

Sequence | self-splicing fitness (ln) (30 °C) | self-splicing fitness (ln) (37 °C)
AACCAGCAAUAUUACGAUGA | -0.753 ± 0.069 | -0.507 ± 0.08
AACCAGCAAUAUUACGCAGC | -2.4 ± 0.11 | -1.29 ± 0.11
AACCAGCAAUAUUACGCCAG | -2.46 ± 0.14 | -1.72 ± 0.18
AACCAGCAAUAUUACGCCCG | -0.353 ± 0.1 | -0.271 ± 0.17
AACCAGCAAUAUUACGCGUC | -2.08 ± 0.089 | -1.12 ± 0.095
AACCAGCAAUAUUACGGACA | -0.462 ± 0.077 | -0.0476 ± 0.095
AACCAGCAAUAUUACGGCCA | -0.365 ± 0.067 | -0.114 ± 0.085
AACCAGCAAUAUUACGGGAG | -0.751 ± 0.036 | -0.132 ± 0.051
AACCAGCAAUAUUACGGGCC | -1.4 ± 0.082 | -0.824 ± 0.11
AACCAGCAAUAUUACGGGUA | -0.823 ± 0.045 | -0.376 ± 0.055
AACCAGCAAUAUUACGGUAC | -2.82 ± 0.12 | -1.1 ± 0.088
AACCAGCAAUAUUACGGUCC | -0.721 ± 0.089 | -0.491 ± 0.12
AACCAGCAAUAUUACGUCCU | 0.026 ± 0.043 | -0.134 ± 0.053
AACCAGCAAUAUUACGUGAC | -2.59 ± 0.087 | -1.37 ± 0.1
AACCAGCAAUAUUACGUUGG | -3.14 ± 0.12 | -2.42 ± 0.13
AACGAGCAAUAUUACGAACC | -3.57 ± 0.49 | -1.66 ± 0.35
AACGAGCAAUAUUACGACCG | -3.46 ± 0.34 | 
AACGAGCAAUAUUACGACGC | -2 ± 0.14 | -0.785 ± 0.18
AACGAGCAAUAUUACGACGU | -0.822 ± 0.09 | -0.593 ± 0.089
AACGAGCAAUAUUACGAGGA | -2.36 ± 0.28 | -2.34 ± 0.42
AACGAGCAAUAUUACGCCGA | -2.83 ± 0.25 | -2.42 ± 0.17
AACGAGCAAUAUUACGGAUC | -2.26 ± 0.19 | -2.31 ± 0.17
AACGAGCAAUAUUACGGCAA | -1.49 ± 0.27 | -1.9 ± 0.24
AACGAGCAAUAUUACGGCAU | -1.91 ± 0.1 | -0.446 ± 0.12

Sequence | self-splicing fitness (ln) (30 °C) | self-splicing fitness (ln) (37 °C)
AACGAGCAAUAUUACGGCGU | -1.84 ± 0.098 | -0.572 ± 0.088
AACGAGCAAUAUUACGGCUG | -1.6 ± 0.14 | -0.126 ± 0.16
AACGAGCAAUAUUACGGGAG | -3.14 ± 0.17 | -2.72 ± 0.19
AACGAGCAAUAUUACGGGAU | -4.34 ± 0.19 | -3.33 ± 0.23
AACGAGCAAUAUUACGGUUC | -2.87 ± 0.18 | -2.09 ± 0.19
AACGAGCAAUAUUACGUAAA | -3 ± 0.24 | -2.49 ± 0.33
AACGAGCAAUAUUACGUAGC | -3.51 ± 0.19 | -2.44 ± 0.17
AACGAGCAAUAUUACGUCAA | -3.08 ± 0.23 | -3.35 ± 0.3
AACGAGCAAUAUUACGUGAU | -3.03 ± 0.18 | -0.913 ± 0.13
AACGAGCAAUAUUACGUUCU | -2.19 ± 0.14 | -1.93 ± 0.2
AACUAGCAAUAUUACGACGC | -0.567 ± 0.1 | -0.205 ± 0.15
AACUAGCAAUAUUACGACGU | -0.165 ± 0.069 | 0.653 ± 0.1
AACUAGCAAUAUUACGCCAG | -1.99 ± 0.16 | -0.848 ± 0.23
AACUAGCAAUAUUACGCCAU | -2.6 ± 0.15 | -2.42 ± 0.18
AACUAGCAAUAUUACGCCCA | -0.951 ± 0.14 | 0.0227 ± 0.17
AACUAGCAAUAUUACGCCCC | 0.0551 ± 0.17 | -0.32 ± 0.18
AACUAGCAAUAUUACGCCUU | -0.414 ± 0.073 | 0.376 ± 0.1
AACUAGCAAUAUUACGCGCU | -1.79 ± 0.12 | -0.454 ± 0.12
AACUAGCAAUAUUACGCUGA | -2.18 ± 0.14 | -1.91 ± 0.13
AACUAGCAAUAUUACGGAAA | -2.54 ± 0.2 | -0.697 ± 0.13
AACUAGCAAUAUUACGGCAC | -0.766 ± 0.079 | -0.192 ± 0.11
AACUAGCAAUAUUACGGCAU | -0.42 ± 0.062 | -0.127 ± 0.075
AACUAGCAAUAUUACGUAAC | 0.169 ± 0.15 | -1.5 ± 0.3
AACUAGCAAUAUUACGUACU | -0.0487 ± 0.053 | 0.151 ± 0.073

Sequence | self-splicing fitness (ln) (30 °C) | self-splicing fitness (ln) (37 °C)
AACUAGCAAUAUUACGUAUC | -3.83 ± 0.34 | -2.38 ± 0.29
AACUAGCAAUAUUACGUAUU | -2.04 ± 0.082 | -0.837 ± 0.11
AACUAGCAAUAUUACGUGCU | -2.24 ± 0.083 | -1.97 ± 0.12
AACUAGCAAUAUUACGUGGG | -3.79 ± 0.23 | -2.38 ± 0.17
AAGAAGCAAUAUUACGAAGG | -3.33 ± 0.38 | -2.01 ± 0.36
AAGAAGCAAUAUUACGACUA | 0.152 ± 0.072 | 0.144 ± 0.1
AAGAAGCAAUAUUACGCACG | -1.26 ± 0.082 | -0.749 ± 0.12
AAGAAGCAAUAUUACGCAUA | -1.29 ± 0.11 | -0.0901 ± 0.12
AAGAAGCAAUAUUACGCUCG | -0.487 ± 0.078 | -0.257 ± 0.12
AAGAAGCAAUAUUACGCUUU | -4.1 ± 0.42 | -2.58 ± 0.21
AAGAAGCAAUAUUACGGCCA | -0.587 ± 0.097 | -0.00293 ± 0.12
AAGAAGCAAUAUUACGGCGG | -0.903 ± 0.1 | -0.664 ± 0.12
AAGAAGCAAUAUUACGGGCA | -0.698 ± 0.092 | -0.225 ± 0.11
AAGAAGCAAUAUUACGGGGC |  | -2.95 ± 0.26
AAGAAGCAAUAUUACGGUUU | -1.44 ± 0.068 | -0.413 ± 0.087
AAGAAGCAAUAUUACGUCAG | -2.66 ± 0.2 | -1.91 ± 0.16
AAGAAGCAAUAUUACGUCAU | -1.81 ± 0.075 | -1.04 ± 0.1
AAGAAGCAAUAUUACGUCGA | -0.754 ± 0.097 | 0.0801 ± 0.14
AAGAAGCAAUAUUACGUUAA | -2.77 ± 0.16 | -0.841 ± 0.11
AAGAAGCAAUAUUACGUUUG | -2.45 ± 0.12 | -2.26 ± 0.18
AAGCAGCAAUAUUACGAAUG | -3.74 ± 0.18 | -2.45 ± 0.16
AAGCAGCAAUAUUACGACCU | 0.301 ± 0.08 | 0.149 ± 0.11
AAGCAGCAAUAUUACGAUAA | -1.69 ± 0.12 | -1.16 ± 0.13
AAGCAGCAAUAUUACGAUAU | -0.287 ± 0.076 | -0.0114 ± 0.099
